Positions count from the first letter of the chain named. Names and notes keep the numbering of the source.
How the values were obtained:
[1] = biological target: the molecule itself; experiment: crystal structure; Zn-loaded Zur with the 31 bp znuABC operator duplex (31mer2bpOH); hanging drop, 1.5 M ammonium sulfate, 0.1 M citrate pH 5.5, 4°C; refined to 2.50 Å
[2] = biological target: the molecule itself; experiment: SEC; analytical gel filtration of WT Zur, C103S and C88S; elution volume of WT (10.9 ml) as reference; column and buffer not told
Zur D49A = biological target: T1, Zur D49A (Escherichia coli, UniProt P0AC51 1-171, D49A); experiment: EMSA; 50 uM ZnSO4; Kd1, first dimer; EMSA: 10 mM Tris pH 8.0, 10 mM NaCl, 100 mM K-glutamate, 167 mM KCl, 1.5 mM MgCl2, 1 mM CaCl2, 50 uM ZnSO4, 1 mM DTT, 0.1 ug/ml BSA, 2 ug/ml salmon sperm DNA, DNA <=45 pM, 22 C, 30 min; conditions: protein: recombinant; chain copies: 2; label: 5'-Cy5 on strand 1; blunt
T1 sequence: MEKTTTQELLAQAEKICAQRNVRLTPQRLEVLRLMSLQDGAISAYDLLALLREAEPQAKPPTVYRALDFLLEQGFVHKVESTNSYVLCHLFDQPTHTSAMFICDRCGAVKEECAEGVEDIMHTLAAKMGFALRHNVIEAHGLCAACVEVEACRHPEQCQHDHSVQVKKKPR

Zur R52A = biological target: T2, Zur R52A (Escherichia coli, UniProt P0AC51 1-171, R52A); experiment: as above; conditions: protein: recombinant; chain copies: 2; label: 5'-Cy5 on strand 1; blunt
T2 sequence: T1 sequence with A49D, R52A

Zur WT [3] = biological target: T3, Zur WT (Escherichia coli, UniProt P0AC51 1-171); experiment: EMSA; 50 uM ZnSO4; macroscopic Kd-app for two dimers, Hill ~2.1; EMSA: 10 mM Tris pH 8.0, 10 mM NaCl, 100 mM K-glutamate, 167 mM KCl, 1.5 mM MgCl2, 1 mM CaCl2, 50 uM ZnSO4, 1 mM DTT, 0.1 ug/ml BSA, 2 ug/ml salmon sperm DNA, DNA <=45 pM, 22 C, 30 min; conditions: protein: recombinant; chain copies: 4; label: 5'-Cy5 on strand 1; blunt
T3 sequence: T1 sequence with A49D

Zur WT [4] = biological target: T3, Zur WT; experiment: EMSA; 50 uM ZnSO4; Kd1, first dimer; EMSA: 10 mM Tris pH 8.0, 10 mM NaCl, 100 mM K-glutamate, 167 mM KCl, 1.5 mM MgCl2, 1 mM CaCl2, 50 uM ZnSO4, 1 mM DTT, 0.1 ug/ml BSA, 2 ug/ml salmon sperm DNA, DNA <=45 pM, 22 C, 30 min; conditions: protein: recombinant; chain copies: 4; label: 5'-Cy5 on strand 1; blunt
Zur WT [5] = biological target: T3, Zur WT; experiment: EMSA; 50 uM ZnSO4; macroscopic Kd-app for two dimers; EMSA: 10 mM Tris pH 8.0, 10 mM NaCl, 100 mM K-glutamate, 167 mM KCl, 1.5 mM MgCl2, 1 mM CaCl2, 50 uM ZnSO4, 1 mM DTT, 0.1 ug/ml BSA, 2 ug/ml salmon sperm DNA, DNA <=45 pM, 22 C, 30 min; conditions: protein: recombinant; chain copies: 4; label: 5'-Cy5 on strand 1; blunt
Zur WT [6] = biological target: T3, Zur WT; experiment: X-ray crystallography; Zn2+ (2 per monomer), 2.50 A; EMSA: 10 mM Tris pH 8.0, 10 mM NaCl, 100 mM K-glutamate, 167 mM KCl, 1.5 mM MgCl2, 1 mM CaCl2, 50 uM ZnSO4, 1 mM DTT, 0.1 ug/ml BSA, 2 ug/ml salmon sperm DNA, DNA <=45 pM, 22 C, 30 min; conditions: protein: recombinant; chain copies: 4; 3' overhang 2 nt on both strands
Zur WT [7] = biological target: T3, Zur WT; experiment: X-ray crystallography; Zn2+; Br-DNA, 3.5 A; EMSA: 10 mM Tris pH 8.0, 10 mM NaCl, 100 mM K-glutamate, 167 mM KCl, 1.5 mM MgCl2, 1 mM CaCl2, 50 uM ZnSO4, 1 mM DTT, 0.1 ug/ml BSA, 2 ug/ml salmon sperm DNA, DNA <=45 pM, 22 C, 30 min; conditions: protein: recombinant; chain copies: 4; 3' overhang 2 nt on both strands
Zur WT [8] = biological target: T3, Zur WT; experiment: EMSA; 50 uM ZnSO4; macroscopic Kd-app for two dimers; table footnote a not in material; EMSA: 10 mM Tris pH 8.0, 10 mM NaCl, 100 mM K-glutamate, 167 mM KCl, 1.5 mM MgCl2, 1 mM CaCl2, 50 uM ZnSO4, 1 mM DTT, 0.1 ug/ml BSA, 2 ug/ml salmon sperm DNA, DNA <=45 pM, 22 C, 30 min; conditions: protein: recombinant; chain copies: 4; label: 5'-Cy5 on strand 1; blunt

B1: E. coli zinc uptake regulator (Zur), wild type (natural protein)
chain: T1 sequence with A49D
notes: Zinc uptake regulator Zur of Escherichia coli; the crystal model includes residues 5-152 of each of four chains (A-D); Zinc-loaded (two Zn2+ sites per monomer); no tag is named; also called EcZur; WTZur; source: E. coli BL21 (DE3), pET24d-based plasmid, purified (heparin column)
stoichiometry N [1]: 4

B2: E. coli Zur site B mutant C88S (natural protein)
chain: T1 sequence with A49D, C88S
notes: Zinc uptake regulator Zur of Escherichia coli with C88S (zinc site B); also called B-site (C88S) mutant; source: E. coli BL21 (DE3), pET24d-based plasmid, purified (heparin column)
stoichiometry N [2]: 2

B3: PznuABC 51 bp (dsDNA)
DNA 1: CCGAATATGAGAAGTGTGATATTATAACATTTCATGACTACTGCAAGACGG
DNA 2: CCGTCTTGCAGTAGTCATGAAATGTTATAATATCACACTTCTCATATTCGG
Kd (Zur D49A): 2.1 nM
Kd (Zur R52A): 2.6 nM
Kd (Zur WT [3]): 8.2e-18 M^2

B4: PpliG 51 bp (dsDNA)
DNA 1: CCATGAGTACGATGAACTGTTATAATATAACAATCCCTAACGGGAGAAGG
DNA 2: CCTTCTCCCGTTAGGGATTGTTATATTATAACAGTTCATCGTACTCATGG
Kd (Zur WT [4]): 28 nM
Kd (Zur WT [5]): 5.2e-16 M^2

B5: 31mer2bpOH (dsDNA)
DNA 1: AGAAGTGTGATATTATAACATTTCATGACTATG
DNA 2: TAGTCATGAAATGTTATAATATCACACTTCTCA
binding result (Zur WT [6]): binds

B6: Br-31mer2bpOH (dsDNA)
DNA 1: B5 DNA 1 with T8U, T22U
DNA 2: B5 DNA 2
modifications: 5-bromo-dU at positions 8 and 22 of strand 1 (dU-Br)
binding result (Zur WT [7]): binds

B7: PzinT 51 bp (dsDNA)
DNA 1: CCCATTTTGCTATATGTTACAATATAACATTACACATCATATACATTAAGG
DNA 2: CCTTAATGTATATGATGTGTAATGTTATATTGTAACATATAGCAAAATGGG
Kd (Zur WT [8]): 5.3e-20 M^2

B8: PL31p 51 bp (dsDNA)
DNA 1: CCATCATTTTTACCTGTTATGTTATAACATAACCATAAAGATACATGCTGG
DNA 2: CCAGCATGTATCTTTATGGTTATGTTATAACATAACAGGTAAAAATGATGG
Kd (Zur WT [8]): 2.5e-20 M^2

From article PMC4219657, “Structural and Mechanistic Basis of Zinc Regulation Across the E. coli Zur Regulon” (PLoS Biology, 2014)
